This note sets out measurements from patent US20180244777A1 (NUMAB THERAPEUTICS, published 2018).

Common to all, as to assay: SPR
Assay [1] deals with T1, mouse IL23R (mouse, UniProt Q8K4B4 24-374, limits assumed).
T1 sequence (looked up): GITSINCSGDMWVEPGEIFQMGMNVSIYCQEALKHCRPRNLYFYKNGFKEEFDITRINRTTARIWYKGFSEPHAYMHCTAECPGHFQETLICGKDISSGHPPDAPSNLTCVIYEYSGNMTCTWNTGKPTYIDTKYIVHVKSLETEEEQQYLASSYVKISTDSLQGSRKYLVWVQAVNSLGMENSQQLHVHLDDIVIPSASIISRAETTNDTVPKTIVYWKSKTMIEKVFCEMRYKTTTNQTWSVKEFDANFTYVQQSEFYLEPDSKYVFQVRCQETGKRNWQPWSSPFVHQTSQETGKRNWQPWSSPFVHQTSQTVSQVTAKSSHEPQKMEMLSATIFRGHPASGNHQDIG

The target in assay [2] is T2, mouse CD3ε (mouse, UniProt P22646 22-108, limits assumed).
T2 sequence (P22646 22-108 limits assumed): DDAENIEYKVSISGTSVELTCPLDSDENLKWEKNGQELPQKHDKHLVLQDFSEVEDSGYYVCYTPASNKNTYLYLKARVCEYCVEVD
Assay [3] has as its target T1, mouse IL23R. This is another data set of the same source.
Assay [4] deals with T2, mouse CD3ε. The source holds these as a separate data set.

Read-outs that look alike come from different tables or passages of the source.

B1: PRO386 (bispecific antibody)
light: DIQMTQSPSSLPASLGDRVTINCQASQDISNYLNWYQQKPGKAPKLLIYYTNKLADGVPSRFSGSGSGRDSSFTISSLESEDIGSYYCQQYYNYPWTFGPGTKLEIKRRTVAAPSVFIFPPSDEQLKSGTASVVCLLNNFYPREAKVQWKVDNALQSGNSQESVTEQDSKDSTYSLSSTLTLSKADYEKHKVYACEVTHQGLSSPVTKSFNRGECGGGGSGGGGSHMDIQMTQSPSSLSASVGDRVTITCQASENIYSFLAWYQQKPGKAPKLLIYSASKLAAGVPSRFSGSGSGTDFTLTISSLQPEDFATYYCQQTNRYSNPDIYNVFGQGTKLTVLGGGGGSGGGGSGGGGSGGGGSEVQLVESGGGLVQPGGSLRLSCAASGIDFNSNYYMCWVRQAPGKGLEWIGCIYVGSHVNTYYANWAKGRFTISRDNSKNTVYLQMNSLRAEDTAVYYCATSGSSVLYFKFWGQGTLVTVSS
heavy: EVQLVESGGGLVQPGKSLKLSCEASGFTFSGYGMHWVRQAPGRGLESVAYITSSSINIKYADAVKGRFTVSRDNAKNLLFLQMNILKSEDTAMYYCARFDWDKNYWGQGTMVTVSSASTKGPSVFPLAPSSKSTSGGTAALGCLVKDYFPEPVTVSWNSGALTSGVHTFPAVLQSSGLYSLSSVVTVPSSSLGTQTYICNVNHKPSNTKVDKKVEPKSCGGGGSGGGGSHMDIQMTQSPSSLSASVGDRVTITCQASENIYSFLAWYQQKPGKAPKLLIYSASKLAAGVPSRFSGSGSGTDFTLTISSLQPEDFATYYCQQTNRYSNPDIYNVFGQGTKLTVLGGGGGSGGGGSGGGGSGGGGSEVQLVESGGGLVQPGGSLRLSCAASGIDFNSNYYMCWVRQAPGKGLEWIGCIYVGSHVNTYYANWAKGRFTISRDNSKNTVYLQMNSLRAEDTAVYYCATSGSSVLYFKFWGQGTLVTVSS
notes: Heterodimer; 2C11 Fab with an anti-IL23R scFv 14-11-D07-sc01 on the C-terminus of each chain; also called Tribody; bispecific, trivalent Fab-scFv fusion surrogate molecule
Broadly, the Kd is the equilibrium constant for the complex coming apart. A lower Kd goes with tighter binding. What is called koff is the rate constant with which the complex falls apart. High values mean fast dissociation, low ones slow dissociation. In general, kon refers to a measure of how fast the partners come together. In assay [1], B1 returned a dissociation constant (Kd) of 0.583 nM, a dissociation rate constant (koff) of 0.000533 s⁻¹ and a kon of 915000 M⁻¹ s⁻¹. In assay [2], this molecule returned a Kd of 11.5 nM, a koff of 0.00196 s⁻¹ and a kon of 171000 M⁻¹ s⁻¹.

B2: PRO387 (bispecific antibody)
chain: DIQMTQSPSSLSASVGDRVTITCQASENIYSFLAWYQQKPGKAPKLLIYSASKLAAGVPSRFSGSGSGTDFTLTISSLQPEDFATYYCQQTNRYSNPDIYNVFGQGTKLTVLGGGGGSEVQLVESGGGLVQPGKSLKLSCEASGFTFSGYGMHWVRQAPGRGLESVAYITSSSINIKYADAVKGRFTVSRDNAKNLLFLQMNILKSEDTAMYYCARFDWDKNYWGQGTMVTVSSGGGGSGGGGSGGGGSGGGGSDIQMTQSPSSLPASLGDRVTINCQASQDISNYLNWYQQKPGKAPKLLIYYTNKLADGVPSRFSGSGSGRDSSFTISSLESEDIGSYYCQQYYNYPWTFGPGTKLEIKRGGGGSEVQLVESGGGLVQPGGSLRLSCAASGIDFNSNYYMCWVRQAPGKGLEWIGCIYVGSHVNTYYANWAKGRFTISRDNSKNTVYLQMNSLRAEDTAVYYCATSGSSVLYFKFWGQGTLVTVSS
notes: scDb VLA-L1-VHB-L2-VLB-L3-VHA, A = anti-IL23R, B = anti-mouse CD3ε 2C11; also called bispecific single-chain diabody surrogate (scDb); anti-IL23R 14-11-D07-sc01 × anti-mCD3 2C11
As to B2, in assay [3], binding was characterised by a dissociation constant (Kd) of 4.66 nM, the koff stood at 0.00326 s⁻¹ and the kon was 701000 M⁻¹ s⁻¹. In assay [4], this molecule showed a Kd of 9.11 nM, a koff of 0.00213 s⁻¹ and an on-rate (kon) of 233000 M⁻¹ s⁻¹.
